These results are taken from article doi:10.1101/2021.02.07.430161 (bioRxiv, 2021).

Like-named read-outs stand apart in the source and are kept apart here.

One data set has as its target PABPC1 (1-372) (UniProt P11940-1 1-372). As to the kind of experiment: native gel or EMSA. In general terms: Mobility shift assays separate free from complexed probe on a gel.
Another data set addresses PABPC1 RRM23 (98-293) (UniProt P11940-1 98-293). As to the kind of experiment: native gel or EMSA.
The target in data set [1] is T1, Poly(A) binding protein cytoplasmic 1 (PABPC1), full-length recombinant, His-tagged (UniProt P11940-1 1-636). As to the kind of experiment: SEC-MALS. Background: In gel filtration, larger molecules generally elute earlier.
Data set [2] deals with T1, Poly(A) binding protein cytoplasmic 1 …. As to the kind of experiment: SEC-MALS. This is another data set of the same source.
In data set [3] the target is PABPC1 full-length (His);Paip2 (Paip2a) full-length (human?;human?, UniProt P11940;Q9BPZ3 1-636;1-127, |). As to the kind of experiment: EMSA.
Sequence of PABPC1 full-length (His);Paip2 (Paip2a) full-length (P11940 whole entry, one chain of several): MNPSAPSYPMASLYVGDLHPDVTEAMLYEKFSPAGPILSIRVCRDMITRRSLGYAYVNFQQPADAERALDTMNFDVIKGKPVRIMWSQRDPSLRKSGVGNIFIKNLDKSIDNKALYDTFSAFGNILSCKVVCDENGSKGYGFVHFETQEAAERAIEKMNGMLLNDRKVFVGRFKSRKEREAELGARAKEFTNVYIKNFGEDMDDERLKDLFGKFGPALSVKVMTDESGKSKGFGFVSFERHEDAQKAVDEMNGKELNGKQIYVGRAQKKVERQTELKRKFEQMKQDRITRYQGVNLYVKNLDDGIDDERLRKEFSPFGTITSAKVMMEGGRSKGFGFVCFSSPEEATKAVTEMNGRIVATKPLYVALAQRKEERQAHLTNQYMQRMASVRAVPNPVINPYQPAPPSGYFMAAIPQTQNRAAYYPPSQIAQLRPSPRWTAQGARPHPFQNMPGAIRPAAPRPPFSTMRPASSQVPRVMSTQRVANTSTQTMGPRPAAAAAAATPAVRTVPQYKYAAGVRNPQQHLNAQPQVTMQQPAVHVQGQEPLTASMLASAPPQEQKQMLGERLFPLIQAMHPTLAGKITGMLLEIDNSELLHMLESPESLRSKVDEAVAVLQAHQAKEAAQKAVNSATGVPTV

T1 sequence (P11940 whole entry): as the sequence (P11940 whole entry, one chain of several) above
Sequence of PABPC1 RRM23 (98-293) (P11940 98-293): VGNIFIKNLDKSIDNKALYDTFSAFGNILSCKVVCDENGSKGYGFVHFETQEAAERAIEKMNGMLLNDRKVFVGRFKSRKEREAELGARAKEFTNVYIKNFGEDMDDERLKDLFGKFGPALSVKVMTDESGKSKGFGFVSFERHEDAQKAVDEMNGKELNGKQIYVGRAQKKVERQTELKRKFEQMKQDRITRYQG
Sequence of PABPC1 (1-372) (P11940 1-372): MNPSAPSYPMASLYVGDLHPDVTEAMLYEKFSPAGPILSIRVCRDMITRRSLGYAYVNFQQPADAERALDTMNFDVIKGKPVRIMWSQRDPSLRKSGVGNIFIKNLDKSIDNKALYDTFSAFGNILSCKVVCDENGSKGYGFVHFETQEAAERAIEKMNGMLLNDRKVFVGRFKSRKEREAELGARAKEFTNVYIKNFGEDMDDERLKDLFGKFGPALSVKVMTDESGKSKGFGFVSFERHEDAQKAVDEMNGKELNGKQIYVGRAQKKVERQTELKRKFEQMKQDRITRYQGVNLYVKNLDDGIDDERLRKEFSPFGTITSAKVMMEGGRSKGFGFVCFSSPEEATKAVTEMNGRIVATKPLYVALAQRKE

B1: Paip2 (22-75) (domain or fragment, UniProt Q9BPZ3 22-75, looked up)
chain: GHSHEDDNPFAEYMWMENEEEFNRQIEEELWEEEFIERCFQEMLEEEEEHEWFI
As to B1, the binding result in the data set with PABPC1 (1-372) and with PABPC1 RRM23 (98-293) was “binds” in each case.

B2: PABPC1-interacting protein 2 (Paip2), full-length recombinant (natural protein, UniProt Q9BPZ3 1-127, looked up)
chain: MKDPSRSSTSPSIINEDVIINGHSHEDDNPFAEYMWMENEEEFNRQIEEELWEEEFIERCFQEMLEEEEEHEWFIPARDLPQTMDQIQDQFNDLVISDGSSLEDLVVKSNLNPNAKEFVPGVKYGNI
Consider B2, for which the figures for the “stoichiometry N” value in data set [1] and in data set [2] were 1 Paip2 per PABPC1 and 2 Paip2 per PABPC1, respectively.

B3: r(A)25 (ssRNA)
RNA: AAAAAAAAAAAAAAAAAAAAAAAAA
On to B3, for which the binding result in data set [3] is “binds”.

Usually stoichiometry N stands for a count of units in the complex or per binding partner.
